# B1: S. cerevisiae Abp1 (full length; SH3 domain 535-592 mutated) / Hua2 (parent complex)
# chain 1: MALEPIDYTTHSREIDAEYLKIVRGSDPDTTWLIISPNAKKEYEPESTGSSFHDFLQLFDETKVQYGLARVSPPGSDVEKIIIIGWCPDSAPLKTRASFAANFAAVANNLFKGYHVQVTARDEDDLDENELLMKISNAAGARYSIQTSSKQQGKASTPPVKKSFTPSKSPAPVSKKEPVKTPSPAPAAKISSRVNDNNDDDDWNEPELKERDFDQAPLKPNQSSYKPIGKIDLQKVIAEEKAKEDPRLVQKPTAAGSKIDPSSDIANLKNESKLKRDSEFNSFLGTTKPPSMTESSLKNDDDKVIKGFRNEKSPAQLWAERKAKQNSGNAETKAEAPKPEVPEDEPEGEPDVKDLKSKFEGLAASEKEEEEMENKFAPPPKKSEPTIISPKPFSKPQEPVKAEEAEQPKTDYKKIGNPLPGMHIEADNEEEPEENDDDWDDDEDEAAQPPLPSRNVASGAPVQKEEPEQEEIAPSLPSRNSIPAPKQEEAPEQAPEEEIEEEAEEAAPQLPSRSSAAPPPPPRRATPEKKPKENPWATAEYDYDAAEDNELTFVENDKIINIEFVDDDWWLGELEKDGSKGLFPSNYVSLGN
# chain 2: MQQTKFGKMYLDHDSVVEYSEDEIVEADRITLGYKKRLSMIENQMRHLLEDFSLDVQQIEPILADLQKYYDAFLQLLQKRNKSLQCKRSTHQPVPSPMNSQTSTNAKVNLSGKLMKFQLNSVQKFDEENILRILQNKIEFEHYFQIDKGKKQKVLLLAVYQCLNGPTRLHKVLNIEGIIHNNSIRTILGKQVSSSKWTVFLYDVKLVLLAHRQDVPNLETSKMIVRYGDLFPCALYFKDHTAY
# Variants of: B1
# Assay: DHFR protein-fragment complementation in yeast (Abp1-DHFR F[1,2] x partner-DHFR F[3]), deep mutational scanning, second methotrexate selection vs reference; S. cerevisiae, DHFR-PCA selection in liquid with methotrexate at 30 C, two 72 h selections (the score uses the second); reference = the pre-selection culture
row,Variant,screen value
1,chain 1 D544Y,"-0.602 DMS score: mean over two replicates of log2(f_test/f_ref + 0.5)/ln 2, minus the synonymous-codon median (not a log2 …"
2,chain 1 D544W,"0.0871 DMS score: mean over two replicates of log2(f_test/f_ref + 0.5)/ln 2, minus the synonymous-codon median (not a log2 …"
3,chain 1 D544Q,"0.66 DMS score: mean over two replicates of log2(f_test/f_ref + 0.5)/ln 2, minus the synonymous-codon median (not a log2 …"
4,chain 1 D544F,"0.632 DMS score: mean over two replicates of log2(f_test/f_ref + 0.5)/ln 2, minus the synonymous-codon median (not a log2 …"
5,chain 1 D544K,"1.68 DMS score: mean over two replicates of log2(f_test/f_ref + 0.5)/ln 2, minus the synonymous-codon median (not a log2 …"
6,chain 1 D544P,"-0.888 DMS score: mean over two replicates of log2(f_test/f_ref + 0.5)/ln 2, minus the synonymous-codon median (not a log2 …"
7,chain 1 L571A,"-0.0753 DMS score: mean over two replicates of log2(f_test/f_ref + 0.5)/ln 2, minus the synonymous-codon median (not a log2 …"
8,chain 1 L571W,"-0.19 DMS score: mean over two replicates of log2(f_test/f_ref + 0.5)/ln 2, minus the synonymous-codon median (not a log2 …"
9,chain 1 N549Q,"1.15 DMS score: mean over two replicates of log2(f_test/f_ref + 0.5)/ln 2, minus the synonymous-codon median (not a log2 …"
10,chain 1 N549C,"2.18 DMS score: mean over two replicates of log2(f_test/f_ref + 0.5)/ln 2, minus the synonymous-codon median (not a log2 …"
11,chain 1 D568Y,"-2.08 DMS score: mean over two replicates of log2(f_test/f_ref + 0.5)/ln 2, minus the synonymous-codon median (not a log2 …"
12,chain 1 D568S,"-2.97 DMS score: mean over two replicates of log2(f_test/f_ref + 0.5)/ln 2, minus the synonymous-codon median (not a log2 …"
13,chain 1 E575L,"-0.106 DMS score: mean over two replicates of log2(f_test/f_ref + 0.5)/ln 2, minus the synonymous-codon median (not a log2 …"
14,chain 1 E575M,"-0.236 DMS score: mean over two replicates of log2(f_test/f_ref + 0.5)/ln 2, minus the synonymous-codon median (not a log2 …"
15,chain 1 G591D,"-0.157 DMS score: mean over two replicates of log2(f_test/f_ref + 0.5)/ln 2, minus the synonymous-codon median (not a log2 …"
16,chain 1 G591S,"0.409 DMS score: mean over two replicates of log2(f_test/f_ref + 0.5)/ln 2, minus the synonymous-codon median (not a log2 …"

row,Variant,screen value
1,chain 1 E540M,"-2.49 DMS score: mean over two replicates of log2(f_test/f_ref + 0.5)/ln 2, minus the synonymous-codon median (not a log2 …"
2,chain 1 E540K,"-2.41 DMS score: mean over two replicates of log2(f_test/f_ref + 0.5)/ln 2, minus the synonymous-codon median (not a log2 …"
3,chain 1 A545E,"-0.673 DMS score: mean over two replicates of log2(f_test/f_ref + 0.5)/ln 2, minus the synonymous-codon median (not a log2 …"
4,chain 1 A545Q,"0.22 DMS score: mean over two replicates of log2(f_test/f_ref + 0.5)/ln 2, minus the synonymous-codon median (not a log2 …"
5,chain 1 S585G,"-1.85 DMS score: mean over two replicates of log2(f_test/f_ref + 0.5)/ln 2, minus the synonymous-codon median (not a log2 …"
6,chain 1 W536M,"-0.26 DMS score: mean over two replicates of log2(f_test/f_ref + 0.5)/ln 2, minus the synonymous-codon median (not a log2 …"
7,chain 1 Y541S,"-1.59 DMS score: mean over two replicates of log2(f_test/f_ref + 0.5)/ln 2, minus the synonymous-codon median (not a log2 …"
8,chain 1 Y541V,"-1.72 DMS score: mean over two replicates of log2(f_test/f_ref + 0.5)/ln 2, minus the synonymous-codon median (not a log2 …"
9,chain 1 N592A,"0.381 DMS score: mean over two replicates of log2(f_test/f_ref + 0.5)/ln 2, minus the synonymous-codon median (not a log2 …"
10,chain 1 N592G,"0.394 DMS score: mean over two replicates of log2(f_test/f_ref + 0.5)/ln 2, minus the synonymous-codon median (not a log2 …"
11,chain 1 D566T,"-2.82 DMS score: mean over two replicates of log2(f_test/f_ref + 0.5)/ln 2, minus the synonymous-codon median (not a log2 …"
12,chain 1 K580T,"0.165 DMS score: mean over two replicates of log2(f_test/f_ref + 0.5)/ln 2, minus the synonymous-codon median (not a log2 …"
13,chain 1 K580Q,"0.294 DMS score: mean over two replicates of log2(f_test/f_ref + 0.5)/ln 2, minus the synonymous-codon median (not a log2 …"
14,chain 1 D542G,"0.784 DMS score: mean over two replicates of log2(f_test/f_ref + 0.5)/ln 2, minus the synonymous-codon median (not a log2 …"
15,chain 1 I560N,"-0.729 DMS score: mean over two replicates of log2(f_test/f_ref + 0.5)/ln 2, minus the synonymous-codon median (not a log2 …"
16,chain 1 E563D,"0.0054 DMS score: mean over two replicates of log2(f_test/f_ref + 0.5)/ln 2, minus the synonymous-codon median (not a log2 …"

# The remaining lines, values ahead:
row,screen value,Variant
1,"-0.362 DMS score: mean over two replicates of log2(f_test/f_ref + 0.5)/ln 2, minus the synonymous-codon median (not a log2 …",chain 1 D544N
2,"0.503 DMS score: mean over two replicates of log2(f_test/f_ref + 0.5)/ln 2, minus the synonymous-codon median (not a log2 …",chain 1 D544H
3,"0.786 DMS score: mean over two replicates of log2(f_test/f_ref + 0.5)/ln 2, minus the synonymous-codon median (not a log2 …",chain 1 D544T
4,"1.95 DMS score: mean over two replicates of log2(f_test/f_ref + 0.5)/ln 2, minus the synonymous-codon median (not a log2 …",chain 1 N549E
5,"0.4 DMS score: mean over two replicates of log2(f_test/f_ref + 0.5)/ln 2, minus the synonymous-codon median (not a log2 …",chain 1 N549D
6,"-1.81 DMS score: mean over two replicates of log2(f_test/f_ref + 0.5)/ln 2, minus the synonymous-codon median (not a log2 …",chain 1 D568A
7,"-2.05 DMS score: mean over two replicates of log2(f_test/f_ref + 0.5)/ln 2, minus the synonymous-codon median (not a log2 …",chain 1 D568N
8,"-2.63 DMS score: mean over two replicates of log2(f_test/f_ref + 0.5)/ln 2, minus the synonymous-codon median (not a log2 …",chain 1 D568H
9,"-0.21 DMS score: mean over two replicates of log2(f_test/f_ref + 0.5)/ln 2, minus the synonymous-codon median (not a log2 …",chain 1 E575C
10,"-0.189 DMS score: mean over two replicates of log2(f_test/f_ref + 0.5)/ln 2, minus the synonymous-codon median (not a log2 …",chain 1 G591Y
11,"-0.407 DMS score: mean over two replicates of log2(f_test/f_ref + 0.5)/ln 2, minus the synonymous-codon median (not a log2 …",chain 1 G591H
12,"-0.0626 DMS score: mean over two replicates of log2(f_test/f_ref + 0.5)/ln 2, minus the synonymous-codon median (not a log2 …",chain 1 G591V
13,"0.474 DMS score: mean over two replicates of log2(f_test/f_ref + 0.5)/ln 2, minus the synonymous-codon median (not a log2 …",chain 1 G591I
14,"0.531 DMS score: mean over two replicates of log2(f_test/f_ref + 0.5)/ln 2, minus the synonymous-codon median (not a log2 …",chain 1 G591Q
15,"-0.973 DMS score: mean over two replicates of log2(f_test/f_ref + 0.5)/ln 2, minus the synonymous-codon median (not a log2 …",chain 1 G591C
16,"-2.15 DMS score: mean over two replicates of log2(f_test/f_ref + 0.5)/ln 2, minus the synonymous-codon median (not a log2 …",chain 1 E540H
17,"-2.53 DMS score: mean over two replicates of log2(f_test/f_ref + 0.5)/ln 2, minus the synonymous-codon median (not a log2 …",chain 1 E540L
18,"-0.471 DMS score: mean over two replicates of log2(f_test/f_ref + 0.5)/ln 2, minus the synonymous-codon median (not a log2 …",chain 1 T538N
19,"0.677 DMS score: mean over two replicates of log2(f_test/f_ref + 0.5)/ln 2, minus the synonymous-codon median (not a log2 …",chain 1 T538L
20,"0.252 DMS score: mean over two replicates of log2(f_test/f_ref + 0.5)/ln 2, minus the synonymous-codon median (not a log2 …",chain 1 T538I
21,"-0.987 DMS score: mean over two replicates of log2(f_test/f_ref + 0.5)/ln 2, minus the synonymous-codon median (not a log2 …",chain 1 T538A
22,"-0.259 DMS score: mean over two replicates of log2(f_test/f_ref + 0.5)/ln 2, minus the synonymous-codon median (not a log2 …",chain 1 W536V

row,screen value,Variant
1,"-1.13 DMS score: mean over two replicates of log2(f_test/f_ref + 0.5)/ln 2, minus the synonymous-codon median (not a log2 …",chain 1 Y541D
2,"-2.77 DMS score: mean over two replicates of log2(f_test/f_ref + 0.5)/ln 2, minus the synonymous-codon median (not a log2 …",chain 1 Y541K
3,"0.0303 DMS score: mean over two replicates of log2(f_test/f_ref + 0.5)/ln 2, minus the synonymous-codon median (not a log2 …",chain 1 Y541F
4,"-2.57 DMS score: mean over two replicates of log2(f_test/f_ref + 0.5)/ln 2, minus the synonymous-codon median (not a log2 …",chain 1 Y541L
5,"-1.21 DMS score: mean over two replicates of log2(f_test/f_ref + 0.5)/ln 2, minus the synonymous-codon median (not a log2 …",chain 1 Y541C
6,"1.16 DMS score: mean over two replicates of log2(f_test/f_ref + 0.5)/ln 2, minus the synonymous-codon median (not a log2 …",chain 1 N592E
7,"-0.139 DMS score: mean over two replicates of log2(f_test/f_ref + 0.5)/ln 2, minus the synonymous-codon median (not a log2 …",chain 1 N592W
8,"0.526 DMS score: mean over two replicates of log2(f_test/f_ref + 0.5)/ln 2, minus the synonymous-codon median (not a log2 …",chain 1 N592S
9,"0.369 DMS score: mean over two replicates of log2(f_test/f_ref + 0.5)/ln 2, minus the synonymous-codon median (not a log2 …",chain 1 L582Y
10,"-0.96 DMS score: mean over two replicates of log2(f_test/f_ref + 0.5)/ln 2, minus the synonymous-codon median (not a log2 …",chain 1 K576G
11,"2.04 DMS score: mean over two replicates of log2(f_test/f_ref + 0.5)/ln 2, minus the synonymous-codon median (not a log2 …",chain 1 N586C
12,"-0.984 DMS score: mean over two replicates of log2(f_test/f_ref + 0.5)/ln 2, minus the synonymous-codon median (not a log2 …",chain 1 K580E
13,"-0.00598 DMS score: mean over two replicates of log2(f_test/f_ref + 0.5)/ln 2, minus the synonymous-codon median (not a log2 …",chain 1 K580S
14,"-0.698 DMS score: mean over two replicates of log2(f_test/f_ref + 0.5)/ln 2, minus the synonymous-codon median (not a log2 …",chain 1 K580N
15,"0.0243 DMS score: mean over two replicates of log2(f_test/f_ref + 0.5)/ln 2, minus the synonymous-codon median (not a log2 …",chain 1 K580F
16,"0.542 DMS score: mean over two replicates of log2(f_test/f_ref + 0.5)/ln 2, minus the synonymous-codon median (not a log2 …",chain 1 D542Q
17,"-0.964 DMS score: mean over two replicates of log2(f_test/f_ref + 0.5)/ln 2, minus the synonymous-codon median (not a log2 …",chain 1 I560S
18,"0.328 DMS score: mean over two replicates of log2(f_test/f_ref + 0.5)/ln 2, minus the synonymous-codon median (not a log2 …",chain 1 I560C
19,"0.922 DMS score: mean over two replicates of log2(f_test/f_ref + 0.5)/ln 2, minus the synonymous-codon median (not a log2 …",chain 1 A537G
20,"-1.39 DMS score: mean over two replicates of log2(f_test/f_ref + 0.5)/ln 2, minus the synonymous-codon median (not a log2 …",chain 1 E563R
21,"-0.99 DMS score: mean over two replicates of log2(f_test/f_ref + 0.5)/ln 2, minus the synonymous-codon median (not a log2 …",chain 1 E563N

# — paper PMC7954794 (2021)
